Patent publication US20030082809A1 (University of California, published 2003)

Assays:
Experiment in all cases: cell-based or functional assay
[1] = target: GAD, GAL4-activation domain alone (UniProt P04386)
[2] = target: PIF3:GAD fusion protein (PIF3-GAL4-activation-domain fusion) (Arabidopsis) (UniProt O80536)
[3] = target: T1, PIF3:GAD fusion protein (PIF3-GAL4-activation-domain fusion) (Arabidopsis, UniProt O80536 1-524, limits assumed)
T1 sequence: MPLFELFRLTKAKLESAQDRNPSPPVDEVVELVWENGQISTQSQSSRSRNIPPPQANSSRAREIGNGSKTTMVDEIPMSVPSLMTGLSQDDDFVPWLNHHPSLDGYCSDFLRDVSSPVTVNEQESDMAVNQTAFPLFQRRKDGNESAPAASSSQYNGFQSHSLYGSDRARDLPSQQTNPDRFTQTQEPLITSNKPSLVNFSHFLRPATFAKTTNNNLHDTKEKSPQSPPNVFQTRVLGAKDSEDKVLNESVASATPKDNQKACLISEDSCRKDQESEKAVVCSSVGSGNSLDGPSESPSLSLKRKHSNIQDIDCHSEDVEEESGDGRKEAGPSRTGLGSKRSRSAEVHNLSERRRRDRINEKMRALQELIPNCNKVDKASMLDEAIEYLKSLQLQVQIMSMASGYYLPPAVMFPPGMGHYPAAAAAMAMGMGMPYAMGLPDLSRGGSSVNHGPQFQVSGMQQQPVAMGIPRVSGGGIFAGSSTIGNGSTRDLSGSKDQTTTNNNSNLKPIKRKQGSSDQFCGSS

GAD, GAL4-activation domain alone, sequence (P04386 768-881 limits assumed): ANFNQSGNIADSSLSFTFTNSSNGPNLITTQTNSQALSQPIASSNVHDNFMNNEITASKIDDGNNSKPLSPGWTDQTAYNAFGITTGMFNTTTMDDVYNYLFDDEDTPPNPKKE

## GBD, GAL4 DNA-binding domain alone (from UniProt P04386 1-147)
[1]
  LacZ activity (M. U.), yeast two-hybrid liquid assay, Dark: 0.1 M. U.
  LacZ activity (M. U.), yeast two-hybrid liquid assay, Rp: 0.2 M. U.
  LacZ activity (M. U.), yeast two-hybrid liquid assay, Rp/FRp: 0.2 M. U.

## phyB(NT):GBD fusion protein, Pr form (PCB chromophore, in darkness or after far-red light) (from UniProt P14713 1-621; P04386 1-147)
[2]
  LacZ activity (M. U.), yeast two-hybrid liquid assay, Dark: 0.1 M. U.
  LacZ activity (M. U.), yeast two-hybrid liquid assay, Rp/FRp (red pulse followed at once by far-red pulse): 0.1 M. U.

B1: phyB(NT):GBD fusion protein, Pfr form (PCB chromophore, after red light) (other, UniProt P14713 1-621, looked up)
chain: MVSGVGGSGGGRGGGRGGEEEPSSSHTPNNRRGGEQAQSSGTKSLRPRSNTESMSKAIQQYTVDARLHAVFEQSGESGKSFDYSQSLKTTTYGSSVPEQQITAYLSRIQRGGYIQPFGCMIAVDESSFRIIGYSENAREMLGIMPQSVPTLEKPEILAMGTDVRSLFTSSSSILLERAFVAREITLLNPVWIHSKNTGKPFYAILHRIDVGVVIDLEPARTEDPALSIAGAVQSQKLAVRAISQLQALPGGDIKLLCDTVVESVRDLTGYDRVMVYKFHEDEHGEVVAESKRDDLEPYIGLHYPATDIPQASRFLFKQNRVRMIVDCNATPVLVVQDDRLTQSMCLVGSTLRAPHGCHSQYMANMGSIASLAMAVIINGNEDDGSNVASGRSSMRLWGLVVCHHTSSRCIPFPLRYACEFLMQAFGLQLNMELQLALQMSEKRVLRTQTLLCDMLLRDSPAGIVTQSPSIMDLVKCDGAAFLYHGKYYPLGVAPSEVQIKDVVEWLLANHADSTGLSTDSLGDAGYPGAAALGDAVCGMAVAYITKRDFLFWFRSHTAKEIKWGGAKHHPEDKDDGQRMHPRSSFQAFLEVVKSRSQPWETAEMDAIHSLQLILRDSFKESMKLLSSIEQACDICRLKKLKCSKEKPKCAKCLKNNWECRYSPKTKRSPLTRAHLTEVESRLERLEQLFLLIFPREDLDMILKMDSLQDIKALLTGLFVQDNVNKDAVTDRLASVETDMPLTLRQHRISATSSSEESSNKGQRQLTVS
modifications: phycocyanobilin (PCB) chromophore attached to the phytochrome moiety (residue not stated); Pfr conformer after red light
[3]
  LacZ activity, fold induction 5 min after a 1 min saturating red-light pulse: 2 fold
  LacZ activity, fold induction 10 min after a 1 min saturating red-light pulse: 4 fold
  LacZ activity, fold induction 30 min after a 1 min saturating red-light pulse: 50 fold
  induction of LacZ expression above background by a single red-light pulse: 1000 fold
